Patent US20130324409A1 (University of California, published 2013)
Substitutions are numbered along the chain they refer to. Names and notes keep the numbering of the source. Values belong to the binder of their own block, whether it stands above or below them.

What was measured:
[1] = biological target: T1, PYL4 6×His-tagged protein
T1 chain: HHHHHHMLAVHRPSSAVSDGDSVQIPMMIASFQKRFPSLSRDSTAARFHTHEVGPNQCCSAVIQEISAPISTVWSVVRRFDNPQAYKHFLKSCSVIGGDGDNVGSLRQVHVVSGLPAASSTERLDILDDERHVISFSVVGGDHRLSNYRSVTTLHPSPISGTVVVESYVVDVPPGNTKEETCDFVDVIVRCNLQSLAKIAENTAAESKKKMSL

GST-HAB1 = biological target: T2, GST-HAB1 (Arabidopsis, UniProt Q9CAJ0 23-511); assay: cell-based or functional assay
T2 sequence (looked up): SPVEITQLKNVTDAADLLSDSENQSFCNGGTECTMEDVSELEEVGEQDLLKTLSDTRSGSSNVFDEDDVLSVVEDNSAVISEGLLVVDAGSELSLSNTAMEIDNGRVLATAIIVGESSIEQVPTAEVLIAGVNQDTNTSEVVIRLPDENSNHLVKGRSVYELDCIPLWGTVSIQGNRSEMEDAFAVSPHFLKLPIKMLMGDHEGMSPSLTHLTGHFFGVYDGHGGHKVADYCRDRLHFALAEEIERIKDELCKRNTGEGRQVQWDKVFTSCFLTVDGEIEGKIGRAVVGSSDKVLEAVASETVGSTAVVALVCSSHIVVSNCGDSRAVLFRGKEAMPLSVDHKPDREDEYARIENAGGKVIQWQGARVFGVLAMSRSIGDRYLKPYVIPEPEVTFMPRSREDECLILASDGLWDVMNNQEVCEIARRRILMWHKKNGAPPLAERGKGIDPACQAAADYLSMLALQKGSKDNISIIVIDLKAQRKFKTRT

[2] = biological target: T3, ABI2 (yeast two-hybrid construct) (UniProt O04719 1-423); assay: yeast two-hybrid
T3 construct: also called wild type ABI2; cDNA U24491
T3 sequence (looked up): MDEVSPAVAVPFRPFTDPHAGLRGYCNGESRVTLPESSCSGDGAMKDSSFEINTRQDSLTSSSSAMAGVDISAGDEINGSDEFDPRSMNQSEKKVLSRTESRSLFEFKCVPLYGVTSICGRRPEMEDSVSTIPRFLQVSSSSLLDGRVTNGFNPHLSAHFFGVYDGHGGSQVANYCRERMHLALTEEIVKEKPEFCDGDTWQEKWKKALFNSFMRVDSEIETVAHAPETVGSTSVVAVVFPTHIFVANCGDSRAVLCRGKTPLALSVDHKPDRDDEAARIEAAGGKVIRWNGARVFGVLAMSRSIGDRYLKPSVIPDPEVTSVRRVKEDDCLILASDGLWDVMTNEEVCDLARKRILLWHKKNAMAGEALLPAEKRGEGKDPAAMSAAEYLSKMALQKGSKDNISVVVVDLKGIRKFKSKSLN

[3] = biological target: T4, ABI1 (yeast two-hybrid construct) (UniProt P49597 1-434); assay: yeast two-hybrid
T4 construct: also called wild type ABI1; cDNA C104649
T4 sequence (looked up): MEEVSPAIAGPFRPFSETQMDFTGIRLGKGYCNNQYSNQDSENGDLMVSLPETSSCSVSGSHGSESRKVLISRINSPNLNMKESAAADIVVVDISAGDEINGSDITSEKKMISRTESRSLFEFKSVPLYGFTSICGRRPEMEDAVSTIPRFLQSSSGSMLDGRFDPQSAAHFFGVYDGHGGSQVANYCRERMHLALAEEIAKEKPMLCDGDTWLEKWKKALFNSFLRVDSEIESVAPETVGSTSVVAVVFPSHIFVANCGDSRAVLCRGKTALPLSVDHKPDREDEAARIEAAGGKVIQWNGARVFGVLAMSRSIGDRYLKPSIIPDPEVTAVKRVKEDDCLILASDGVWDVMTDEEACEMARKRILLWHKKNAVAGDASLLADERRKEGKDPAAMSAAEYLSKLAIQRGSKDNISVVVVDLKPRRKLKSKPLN

[4] = biological target: T5, ABI2^G168D encoded by abi2-1 (yeast two-hybrid construct) (UniProt O04719 1-423); assay: yeast two-hybrid
T5 construct: ABA insensitive mutant protein; also called mutant protein encoded by abi2-1
T5 sequence (looked up): T3 sequence (looked up) with G168D

GST-ABI1 = biological target: T6, GST-ABI1 (UniProt P49597 1-434); assay: His-tag pull-down, E. coli lysate holding the PP2C
T6 construct: Used as cleared E. coli lysate in the pull-downs; not shown: glutathione S-transferase (GST)
T6 sequence (looked up): T4 sequence (looked up)
Protocol: (§1) To explore the functional implications of the PYR1-PP2C interaction, we examined if an ABA response could be reconstituted in vitro. Recombinant GST-HAB1, GST-ABI1 and GST-ABI2 were expressed in E. coli and tested for ligand-dependent interactions with 6×His-PYR1 in pull-down assays. Purified 6×His-PYR1 and GST-HAB1 (20 and 100 μg respectively, 8 μM PYR1 final concentration), were combined in 100 μl TBS containing 10 μM (+)-ABA or 1% DMSO for negative control. The reaction was incubated for 90 minutes at RT and 5 μl of PrepEase (USB) His-tagged protein purification resin was added. The resin and reaction mixture was incubated 30 min at RT with gentle shaking at 5 min intervals. The resin was washed five times with TBS containing 10 μM (+)-ABA. After the final wash, the bound protein was eluted in 20 μl SDS-PAGE buffer, boiled for 5 minutes and centrifuged. 5 μl of eluate was analyzed on SDS-PAGE. For pull-downs with ABI1 and ABI2, crude lysates were used in a similar method, except purified PP2C was replaced with cleared E. coli lysates. The amount of lysate added was determined by SDS-page analysis to yield ˜100 μg PP2C, such that the same stoichiometry was used as in assays using purified proteins.

GST-ABI2 = biological target: T7, GST-ABI2 (UniProt O04719 1-423); assay: His-tag pull-down, E. coli lysate holding the PP2C
T7 construct: Used as cleared E. coli lysate in the pull-downs; not shown: glutathione S-transferase (GST)
T7 sequence (looked up): T3 sequence (looked up)
Protocol: as §1

B1: GST-HAB1 (protein)
chain: T2 sequence (looked up)
HAB1 phosphatase activity (substrate pNPP) [1]: (+)-ABA inhibits HAB1 phosphatase activity in the presence of PYL4

B2: 6×His-PYR1 (receptor, not shown: small tags and cut ends)
chain: MPSELTPEERSELKNSIAEFHTYQLDPGSCSSLHAQRIHAPPELVWSIVRRFDKPQTYKHFIKSCSVEQNFEMRVGCTRDVIVISGLPANTSTERLDILDDERRVTGFSIIGGEHRLTNYKSVTTVHRFEKENRIWTVVLESYVVDMPEGNSEDDTRMFADTVVKLNLQKLATVAEAMARNSGDGSGSQVT
IC50 of (+)-ABA for inhibition of HAB1 phosphatase activity (substrate pNPP) in the presence of PYR1 (GST-HAB1): 0.18 µM

Other lines, results leading:

binding result [2]: binds
binding result [3]: binds
binding result [4]: no binding
B3: BD-PYR1 fusion protein (receptor, not shown: large carriers; small tags and cut ends)
chain: B2 chain
notes: Pyr1 open reading frame cloned in frame into pBD-GAL4 Cam, expressed in yeast Y190; also called PYR1 Y2H bait construct; PYRABACTIN … 1

binding result (GST-ABI1): no binding (tested: 10 µM (+)-ABA)
binding result (GST-ABI2): no binding (tested: 10 µM (+)-ABA)
B4: 6×His-PYR1^P88S (receptor)
chain: B2 chain with P88S
notes: also called pyr1-3 mutant protein; not shown: 6×His tag and vector residues of pET28
